Results from patent publication US8361442B2, “Oxime conjugates and methods for their formation and use” (The General Hospital Corporation, priority 2002, dated 2013).

What was measured:
[1] = design: species or system CD1 mice; settings: mouse, in vivo, iv
Experimental: For animal studies, protein conjugates were labeled with [^111In] after modification of the trypsin portion of conjugates with DTPA. EDC mediated coupling was carried out in aqueous solution at DTPA/EDC/Trypsin lysine residue ratio 500:50:1 at pH 7.5. The resultant DTPA-labeled conjugates were purified by gel chromatography on Sephadex G-25. DTPA to protein molar ratio, as determined by Cu(II) colorimetric assay at 775 nm was approximately 1:4. Unmodified proteins were labeled analogously.
Labeling was performed by transchelation from [^111In] citrate. The labeling solution was prepared by mixing carrier-free [^111In] indium chloride in 0.05 M HCl with a 20-fold volume excess of 0.5 M sodium citrate, pH=5.6. The resultant [^111In] indium citrate solution was added to unbuffered solutions of DTP-modified polymers at 0.2 to 1 mCi of [^111In] per 1 mg of dry substance. The labeled conjugates were separated by gel chromatography on Sephadex G-25, with simultaneous media replacement to sterile isotonic saline. […]
Mice were euthanized at 0.25, 0.5, 1, 2, 4, and 8 hours (n=2). Blood samples and harvested organs (hart, lungs, liver, spleen, kidneys, adrenal glands, stomach, GI, testes, muscle, bone, brain and tail) were analyzed on gamma counter. The amount of radioactivity per organ was expressed as a percentage of the injected dose per gram tissue.

[2] = design: species or system mice and rats; settings: in vivo
From the text: Biokinetics and biodistributions were studied by blood and tissue sampling in rats, mice and rabbits using ^111In labeled preparations at clinically relevant doses. Fast initial stages (if present) were studied by dynamic gamma-scintigraphy in anesthetized animals.
Biokinetics of unmodified polyals of various molecular weights were studied in normal mice, rats and rabbits. Biokinetics of model nanocarriers (PHF graft copolymers) and polyal-modified liposomes were studied in rats. Biokinetics of formylpeptide conjugates were studied in normal rabbits and rabbits with focal bacterial inflammation. Protein conjugates were studied in mice and rats.

B1: Trypsin: Bovine pancreatic trypsin (EC 3.4.21.4) Type III; DTPA-modified, 111In-labeled for animal studies (protein, UniProt P00760 24-246, looked up)
Serine protease 1: IVGGYTCGANTVPYQVSLNSGYHFCGGSLINSQWVVSAAHCYKSGIQVRLGEDNINVVEGNEQFISASKSIVHPSYNSNTLNNDIMLIKLKSAASLNSRVASISLPTSCASAGTQCLISGWGNTKSSGTSYPDVLKCLKAPILSDSSCKSAYPGQITSNMFCAGYLEGGKDSCQGDSGGPVVCSGKLQGIVSWGSGCAQKNKPGVYTKVCNYVSWIKQTIASN
modifications: DTPA-modified, 111In-labeled
notes: Bovine pancreatic trypsin (EC 3.4.21.4) Type III; DTPA-modified, 111In-labeled for animal studies
[1]
  clearance of activity from blood within 15 minutes after administration: 80%
  half-life of secondary monoexponential clearance: 4 ± 0.8 h
[2]
  blood half-life of unmodified protein: 7 min
